Laboratory results as given in patent US20020058247A1 (TRIPEP, published 2002).

Each binder was assayed against T1, Full length recombinant HBcAg (rHBcAg) encompassing residues 1-183 (hepatitis B virus, UniProt P03146 1-183) (assay: EIA, support-bound peptide, HBcAg 5 ug/ml).
T1 construct: range 1-183; also called hepatitis B virus core antigen
T1 sequence (P03146 whole entry, the tested form may be a part): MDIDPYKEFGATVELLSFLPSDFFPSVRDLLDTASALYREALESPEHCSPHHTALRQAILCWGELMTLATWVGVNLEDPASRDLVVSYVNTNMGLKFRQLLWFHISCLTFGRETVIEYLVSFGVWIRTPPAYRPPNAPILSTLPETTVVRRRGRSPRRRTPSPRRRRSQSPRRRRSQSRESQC

In order of rising “OD at 490 nm” value:
1. ISCRASQSVSTSSYSYMHWY [ISCRASQSVSTSSYSYMHWY (SEQ. ID. No. 17)]  1.94 OD
2. VKPGASVKLSCKASGYIFTS (also called Peptide # 2; Pept. #2) [VKPGASVKLSCKASGYIFTS (SEQ. ID. No. 5)]  3.26 OD

Target: T1, Full length recombinant HBcAg (rHBcAg) …
Assay: EIA, support-bound peptide, HBcAg 5 ug/ml
Remark: another data set of the same source

In order of rising OD:
1. CKASGYSFTGYNMNWVKQSH (also called Peptide # 26) [CKASGYSFTGYNMNWVKQSH (SEQ. ID. No. 29)]  0.245 OD
2. VKPGASVKISCKASGYSFTG (also called Peptide # 25) [VKPGASVKISCKASGYSFTG (SEQ. ID. No. 28)]  0.359 OD
3. LAVSLGQRATISCRASQSVS [LAVSLGQRATISCRASQSVS (SEQ. ID. No. 16)]  0.501 OD
4. ISCRASQSVSTSSYSYMHWY [ISCRASQSVSTSSYSYMHWY (SEQ. ID. No. 17)]  0.633 OD
5. VKPGASVKLSCKASGYIFTS (also called Peptide # 2; Pept. #2) [VKPGASVKLSCKASGYIFTS (SEQ. ID. No. 5)]  0.989 OD

These binders were tested against T1, Full length recombinant HBcAg (rHBcAg) … (assay: EIA, support-bound peptide, HBcAg 10 ug/ml).

In order of falling OD:
1. VKPGASVKLSCKASGYIFTS (also called Peptide # 2; Pept. #2) [VKPGASVKLSCKASGYIFTS (SEQ. ID. No. 5)]  1.69 OD
2. ISCRASQSVSTSSYSYMHWY [ISCRASQSVSTSSYSYMHWY (SEQ. ID. No. 17)]  1.15 OD
3. VKPGASVKISCKASGYSFTG (also called Peptide # 25) [VKPGASVKISCKASGYSFTG (SEQ. ID. No. 28)]  0.897 OD
4. LAVSLGQRATISCRASQSVS [LAVSLGQRATISCRASQSVS (SEQ. ID. No. 16)]  0.872 OD
5. CKASGYSFTGYNMNWVKQSH (also called Peptide # 26) [CKASGYSFTGYNMNWVKQSH (SEQ. ID. No. 29)]  0.601 OD

Each binder was assayed against T1, Full length recombinant HBcAg (rHBcAg) … (assay: EIA, support-bound peptide, HBcAg 20 ug/ml).

In order of rising OD:
1. CKASGYSFTGYNMNWVKQSH (also called Peptide # 26) [CKASGYSFTGYNMNWVKQSH (SEQ. ID. No. 29)]  1.48 OD
2. LAVSLGQRATISCRASQSVS [LAVSLGQRATISCRASQSVS (SEQ. ID. No. 16)]  2.63 OD
3. VKPGASVKISCKASGYSFTG (also called Peptide # 25) [VKPGASVKISCKASGYSFTG (SEQ. ID. No. 28)]  2.65 OD
4. ISCRASQSVSTSSYSYMHWY [ISCRASQSVSTSSYSYMHWY (SEQ. ID. No. 17)]  2.66 OD
5. VKPGASVKLSCKASGYIFTS (also called Peptide # 2; Pept. #2) [VKPGASVKLSCKASGYIFTS (SEQ. ID. No. 5)]  3.45 OD

Each binder was assayed against T1, Full length recombinant HBcAg (rHBcAg) … (assay: EIA, peptide coated 3.125 ug/ml, HBcAg 10 ug/ml).

In order of rising OD:
1. CKASGYSFTGYNMNWVKQSH (also called Peptide # 26) [CKASGYSFTGYNMNWVKQSH (SEQ. ID. No. 29)]  0.171 OD
2. VKPGASVKISCKASGYSFTG (also called Peptide # 25) [VKPGASVKISCKASGYSFTG (SEQ. ID. No. 28)]  0.217 OD
3. VKPGASVKLSCKASGYIFTS (also called Peptide # 2; Pept. #2) [VKPGASVKLSCKASGYIFTS (SEQ. ID. No. 5)]  0.333 OD
4. LAVSLGQRATISCRASQSVS [LAVSLGQRATISCRASQSVS (SEQ. ID. No. 16)]  0.355 OD
5. ISCRASQSVSTSSYSYMHWY [ISCRASQSVSTSSYSYMHWY (SEQ. ID. No. 17)]  0.413 OD

Each binder was assayed against T1, Full length recombinant HBcAg (rHBcAg) … (assay: competition EIA, peptide added to HBcAg before mAb 4-2 (competitor); OD of bound mAb).

VKPGASVKLSCKASGYIFTS (also called Peptide # 2; Pept. #2) [VKPGASVKLSCKASGYIFTS (SEQ. ID. No. 5)] was tested, and the “OD at 490 nm” value was 0.453 OD.

What follows are binders tested against T1, Full length recombinant HBcAg (rHBcAg) … (assay: competition EIA, HBcAg coated 1 ug/ml, peptide 200 ug/ml before mAb 4-2 (competitor); OD of bound mAb).

In order of falling “OD at 490 nm” value:
1. ISCRASQSVSTSSYSYMHWY [ISCRASQSVSTSSYSYMHWY (SEQ. ID. No. 17)]  0.305 OD
2. LAVSLGQRATISCRASQSVS [LAVSLGQRATISCRASQSVS (SEQ. ID. No. 16)]  0.299 OD
3. CKASGYSFTGYNMNWVKQSH (also called Peptide # 26) [CKASGYSFTGYNMNWVKQSH (SEQ. ID. No. 29)]  0.201 OD
4. VKPGASVKISCKASGYSFTG (also called Peptide # 25) [VKPGASVKISCKASGYSFTG (SEQ. ID. No. 28)]  0.173 OD
5. VKPGASVKLSCKASGYIFTS (also called Peptide # 2; Pept. #2) [VKPGASVKLSCKASGYIFTS (SEQ. ID. No. 5)]  0.078 OD

Each binder was assayed against T1, Full length recombinant HBcAg (rHBcAg) … (assay: competition EIA, HBcAg coated 1 ug/ml, peptide 12.5 ug/ml before mAb 4-2 (competitor); OD of bound mAb).

In order of rising “OD at 490 nm” value:
1. VKPGASVKLSCKASGYIFTS (also called Peptide # 2; Pept. #2) [VKPGASVKLSCKASGYIFTS (SEQ. ID. No. 5)]  0.331 OD
2. VKPGASVKISCKASGYSFTG (also called Peptide # 25) [VKPGASVKISCKASGYSFTG (SEQ. ID. No. 28)]  0.339 OD
3. CKASGYSFTGYNMNWVKQSH (also called Peptide # 26) [CKASGYSFTGYNMNWVKQSH (SEQ. ID. No. 29)]  0.357 OD
4. LAVSLGQRATISCRASQSVS [LAVSLGQRATISCRASQSVS (SEQ. ID. No. 16)]  0.365 OD
5. ISCRASQSVSTSSYSYMHWY [ISCRASQSVSTSSYSYMHWY (SEQ. ID. No. 17)]  0.38 OD

These binders were tested against T1, Full length recombinant HBcAg (rHBcAg) … (assay: competition EIA, HBcAg coated 5 ug/ml, peptide 25 ug/ml together with mAb 4-2 (competitor); OD of bound mAb).

In order of rising “OD at 490 nm” value:
1. VKPGASVKLSCKASGYIFTS (also called Peptide # 2; Pept. #2) [VKPGASVKLSCKASGYIFTS (SEQ. ID. No. 5)]  0.698 OD
2. LAVSLGQRATISCRASQSVS [LAVSLGQRATISCRASQSVS (SEQ. ID. No. 16)]  1.03 OD
3. VKPGASVKISCKASGYSFTG (also called Peptide # 25) [VKPGASVKISCKASGYSFTG (SEQ. ID. No. 28)]  1.2 OD
4. CKASGYSFTGYNMNWVKQSH (also called Peptide # 26) [CKASGYSFTGYNMNWVKQSH (SEQ. ID. No. 29)]  1.35 OD
5. ISCRASQSVSTSSYSYMHWY [ISCRASQSVSTSSYSYMHWY (SEQ. ID. No. 17)]  1.39 OD

Each binder was assayed against T1, Full length recombinant HBcAg (rHBcAg) … (assay: competition EIA, HBcAg coated 5 ug/ml, peptide 100 ug/ml together with mAb 4-2 (competitor); OD of bound mAb).

In order of falling “OD at 490 nm” value:
1. ISCRASQSVSTSSYSYMHWY [ISCRASQSVSTSSYSYMHWY (SEQ. ID. No. 17)]  1.46 OD
2. CKASGYSFTGYNMNWVKQSH (also called Peptide # 26) [CKASGYSFTGYNMNWVKQSH (SEQ. ID. No. 29)]  0.947 OD
3. VKPGASVKISCKASGYSFTG (also called Peptide # 25) [VKPGASVKISCKASGYSFTG (SEQ. ID. No. 28)]  0.91 OD
4. LAVSLGQRATISCRASQSVS [LAVSLGQRATISCRASQSVS (SEQ. ID. No. 16)]  0.891 OD
5. VKPGASVKLSCKASGYIFTS (also called Peptide # 2; Pept. #2) [VKPGASVKLSCKASGYIFTS (SEQ. ID. No. 5)]  0.194 OD

These binders were tested against T1, Full length recombinant HBcAg (rHBcAg) … (assay: competition EIA, HBcAg coated 5 ug/ml, peptide 200 ug/ml together with mAb 4-2 (competitor); OD of bound mAb).

In order of rising “OD at 490 nm” value:
1. VKPGASVKLSCKASGYIFTS (also called Peptide # 2; Pept. #2) [VKPGASVKLSCKASGYIFTS (SEQ. ID. No. 5)]  0.139 OD
2. VKPGASVKISCKASGYSFTG (also called Peptide # 25) [VKPGASVKISCKASGYSFTG (SEQ. ID. No. 28)]  0.302 OD
3. CKASGYSFTGYNMNWVKQSH (also called Peptide # 26) [CKASGYSFTGYNMNWVKQSH (SEQ. ID. No. 29)]  0.341 OD
4. LAVSLGQRATISCRASQSVS [LAVSLGQRATISCRASQSVS (SEQ. ID. No. 16)]  0.859 OD
5. ISCRASQSVSTSSYSYMHWY [ISCRASQSVSTSSYSYMHWY (SEQ. ID. No. 17)]  1.47 OD

These binders were tested against T1, Full length recombinant HBcAg (rHBcAg) … (assay: competition EIA, HBcAg coated 5 ug/ml, peptide 6.25 ug/ml together with mAb 4-2 (competitor); OD of bound mAb).

In order of rising “OD at 490 nm” value:
1. VKPGASVKLSCKASGYIFTS (also called Peptide # 2; Pept. #2) [VKPGASVKLSCKASGYIFTS (SEQ. ID. No. 5)]  0.867 OD
2. LAVSLGQRATISCRASQSVS [LAVSLGQRATISCRASQSVS (SEQ. ID. No. 16)]  0.979 OD
3. VKPGASVKISCKASGYSFTG (also called Peptide # 25) [VKPGASVKISCKASGYSFTG (SEQ. ID. No. 28)]  1.18 OD
4. CKASGYSFTGYNMNWVKQSH (also called Peptide # 26) [CKASGYSFTGYNMNWVKQSH (SEQ. ID. No. 29)]  1.2 OD
5. ISCRASQSVSTSSYSYMHWY [ISCRASQSVSTSSYSYMHWY (SEQ. ID. No. 17)]  1.26 OD
